The target of data set [1] is mouse fibulin-2 construct S427-G545, three anaphylatoxin-like modules (mutant C500L) (mouse) (UniProt P37889). The experiment in a line: SEC-MALS; 50 µL of ~2 mg/mL SEC purified protein on Superdex 200 Increase 10/300, 20 mM Tris-HCl pH 8, 150 mM NaCl, 0.5 mL/min.
Data set [2] deals with the molecule itself. The description is as above.

The text below walks through data of publication PMC11220139, “Biophysical and structural studies of fibulin-2” (Scientific Reports, 2024).

Usually stoichiometry N stands for the number of molecules, sites or subunits per partner or assembly.

“mouse fibulin-2 construct S427-G545, three anaphylatoxin-like modules (mutant C500L) (from UniProt P37889 427-545) (domain or fragment)” displayed a stoichiometry N in data set [1] of 2.

B1: mouse fibulin-2 construct S427-G545, three anaphylatoxin-like modules (wild-type) (domain or fragment, UniProt P37889 427-545, looked up)
chain: STKDLIETCCAAGQQWAIDNDECQEIPENGAQSDICRIAQRQCCISYLKEKSCVAGVMGAKEGETCGAEDNDTCGVSLYKQCCDCCGLGLRVRAEGQSCESNPNLGYPCNHVMLSCCEG
notes: fibulin-2, mouse, residues S427-G545 (three anaphylatoxin-like modules); numbering is according to the full-length protein; Homodimer linked by an inter-molecular disulfide bond via C500; 8 intra-molecular disulfide bonds in each chain; also called MH6M-S427-G545; pAS79 construct; source: E. coli BL21 (DE3) with the CyDisCo plasmid pMJS205 (Erv1p and PDI), purified (nickel IMAC, SEC); not shown: …
With B1, in data set [2], the “stoichiometry N” value turned out to be 2.
